Experimental findings from article PMC11853100 (2025) are described below.

This experiment concerns the target T1, Pneumolysin (Ply) (Streptococcus pneumoniae, UniProt Q04IN8).
T1 chain: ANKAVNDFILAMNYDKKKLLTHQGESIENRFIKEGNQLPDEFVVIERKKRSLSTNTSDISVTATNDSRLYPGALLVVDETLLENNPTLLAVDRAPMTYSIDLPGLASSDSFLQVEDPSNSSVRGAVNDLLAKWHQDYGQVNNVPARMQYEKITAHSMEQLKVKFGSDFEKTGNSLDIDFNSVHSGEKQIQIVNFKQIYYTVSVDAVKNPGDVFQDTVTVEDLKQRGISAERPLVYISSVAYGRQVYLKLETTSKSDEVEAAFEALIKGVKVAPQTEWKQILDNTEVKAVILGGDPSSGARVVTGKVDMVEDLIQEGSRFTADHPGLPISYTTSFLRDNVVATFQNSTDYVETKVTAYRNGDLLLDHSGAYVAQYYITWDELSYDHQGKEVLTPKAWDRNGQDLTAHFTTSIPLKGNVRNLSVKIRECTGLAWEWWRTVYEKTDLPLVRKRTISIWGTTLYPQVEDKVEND
The experiment in a line: ITC; given as Ka.

B1: SpnPrsA (protein)
chain: CSKGSEGADLISMKGDVITEHQFYEQVKNNPSAQQVLLNMTIQKVFEKQYGSELDDKEVDDTIAEEKKQYGENYQRVLSQAGMTLETRKAQIRTSKLVELAVKKVAEAELTDEAYKKAFDEYTPDVTAQIIRLNNEDKAKEVLEKAKAEGADFAQLAKDNSTDEKTKENGGEITFDSASTEVPEQVKKAAFALDVDGVSDVITATGTQAYSSQYYIVKLTKKTEKSSNIDDYKEKLKTVILTQKQNDSTFVQSIIGKELQAANIKVKDQAFQNIFTQYIGGGDSSSSSSTSNE
Regarding B1, the Kd (commonly the concentration at which binding is half-saturated) came to 119 nM.
